This note sets out measurements from US20240124586A1.

The EC50 (read off the curve) is the concentration that produces a half-maximal response. Low readings indicate greater potency, high ones weaker potency.

Experiment [1] deals with human C1Q (human) (UniProt P02745). Description: ELISA, antibody coated on the plate, C1q titrated (the concentration is that of C1q). For orientation: ELISA stands for enzyme-linked immunosorbent assay.
Experiment [2] shares this target. Description: ELISA, antibody coated on the plate, C1q titrated (axis: [C1q] nM), anti-C1q-HRP detection.
The target in experiment [3] is human CD19 on CD19+ B cell lines (Ramos, Raji) (human) (UniProt P15391). Description: FACS bridging of pre-labelled Jurkat (CD3+) and Raji (CD19+) cells mixed 1:1, negative control.
In experiment [4] the target is human CD3 on CD3+ Jurkat cells (human) (UniProt P07766). Described as above.
Sequence of human CD3 on CD3+ Jurkat cells (human) (P07766 23-207, chain 1 of 3): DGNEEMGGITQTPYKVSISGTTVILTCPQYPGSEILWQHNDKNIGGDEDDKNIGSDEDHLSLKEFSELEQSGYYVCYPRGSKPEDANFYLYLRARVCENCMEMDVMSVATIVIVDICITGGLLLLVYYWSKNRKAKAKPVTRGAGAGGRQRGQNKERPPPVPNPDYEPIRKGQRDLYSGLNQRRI
Sequence of human CD3 on CD3+ Jurkat cells (human) (P09693 23-182, chain 2 of 3, further chain): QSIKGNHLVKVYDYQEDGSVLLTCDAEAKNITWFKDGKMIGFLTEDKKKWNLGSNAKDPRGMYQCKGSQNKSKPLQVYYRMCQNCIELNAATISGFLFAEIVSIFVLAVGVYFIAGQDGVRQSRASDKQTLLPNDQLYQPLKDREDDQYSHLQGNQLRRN
Sequence of human CD3 on CD3+ Jurkat cells (human) (P04234 22-171, chain 3 of 3, further chain): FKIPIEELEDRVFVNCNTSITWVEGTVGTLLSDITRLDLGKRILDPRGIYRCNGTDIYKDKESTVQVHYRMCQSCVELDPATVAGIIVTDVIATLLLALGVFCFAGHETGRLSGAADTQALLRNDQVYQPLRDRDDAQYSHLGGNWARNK

Sequence of human C1Q (human) (P02745 23-245 limits assumed, chain 1 of 3): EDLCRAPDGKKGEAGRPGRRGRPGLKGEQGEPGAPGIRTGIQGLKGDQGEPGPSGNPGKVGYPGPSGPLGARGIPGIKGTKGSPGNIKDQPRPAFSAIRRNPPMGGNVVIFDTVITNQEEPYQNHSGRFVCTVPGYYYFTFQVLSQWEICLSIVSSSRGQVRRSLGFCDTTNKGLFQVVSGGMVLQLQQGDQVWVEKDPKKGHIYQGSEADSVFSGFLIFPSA
Sequence of human C1Q (human) (P02746 28-253 limits assumed, chain 2 of 3, further chain): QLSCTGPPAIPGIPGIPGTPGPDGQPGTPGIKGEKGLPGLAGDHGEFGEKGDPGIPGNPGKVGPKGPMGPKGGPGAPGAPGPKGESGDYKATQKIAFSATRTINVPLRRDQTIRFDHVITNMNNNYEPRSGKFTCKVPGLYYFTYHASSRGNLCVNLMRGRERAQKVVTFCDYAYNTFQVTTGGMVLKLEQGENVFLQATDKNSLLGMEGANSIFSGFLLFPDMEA
Sequence of human C1Q (human) (P02747 29-245 limits assumed, chain 3 of 3, further chain): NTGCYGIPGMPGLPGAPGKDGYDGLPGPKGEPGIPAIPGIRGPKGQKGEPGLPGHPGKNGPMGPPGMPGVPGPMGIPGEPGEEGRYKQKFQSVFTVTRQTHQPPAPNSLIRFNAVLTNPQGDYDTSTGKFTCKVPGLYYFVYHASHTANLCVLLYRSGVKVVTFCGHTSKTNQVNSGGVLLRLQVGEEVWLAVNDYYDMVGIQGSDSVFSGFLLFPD
Sequence of human CD19 on CD19+ B cell lines (Ramos, Raji) (human) (P15391 20-556): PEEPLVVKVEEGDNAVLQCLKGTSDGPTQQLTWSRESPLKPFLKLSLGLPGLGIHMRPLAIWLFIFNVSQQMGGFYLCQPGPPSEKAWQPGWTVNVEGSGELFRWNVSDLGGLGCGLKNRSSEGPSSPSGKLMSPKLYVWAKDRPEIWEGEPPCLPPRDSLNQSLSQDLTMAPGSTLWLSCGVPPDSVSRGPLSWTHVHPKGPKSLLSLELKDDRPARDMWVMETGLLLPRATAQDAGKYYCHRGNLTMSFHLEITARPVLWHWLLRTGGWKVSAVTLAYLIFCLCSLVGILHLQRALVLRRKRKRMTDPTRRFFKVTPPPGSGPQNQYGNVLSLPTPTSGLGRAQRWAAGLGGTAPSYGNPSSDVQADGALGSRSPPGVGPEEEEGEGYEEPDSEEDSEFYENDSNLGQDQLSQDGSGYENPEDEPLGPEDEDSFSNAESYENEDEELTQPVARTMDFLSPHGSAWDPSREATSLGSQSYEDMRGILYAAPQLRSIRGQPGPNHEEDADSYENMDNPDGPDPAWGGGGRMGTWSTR

As for control human IgG1 antibody, the EC50 (read off the curve) with human C1Q (human) [1] and with human C1Q (human) [2] was 30 nM throughout.
On to irrelevant IgG (antibody), for which the Q2 % (events positive for both the CD3+ and the CD19+ cell label) in experiment [3] and in experiment [4] was 4.91% in each case.
